Assay [1] has as its target T1, ACVR1 (as used for surface plasmon resonance) (Homo sapiens (assumed), UniProt Q04771).
T1 construct: ACVR1 (ALK2), BMP type I receptor; For other steps (serum ELISA, panning, BLI) the methods name recombinant human ACVR1 extracellular domain proteins (Creative Biomart ACVR1-01H; Sino Biologicals 10227-H03B; R&D Systems 637-AR), but none is named for the BIAcore measurement; It was probably an extracellular domain construct; also called ALK2; BMP type I receptor ACVR1
As to the kind of experiment: SPR; BIAcore; which partner was immobilised, and the conditions, are not told in the text shown. To be noted: both partners purified. For orientation: Surface plasmon resonance follows binding to a sensor surface in real time, without labels.

The target in assay [2] is T2, ACVR1 on parental C2C12 cells (Mus musculus (C2C12, endogenous), UniProt P37172).
T2 construct: ACVR1 (ALK2), mouse, endogenous on the surface of C2C12 cells; also called ALK2; wild-type ACVR1; source: endogenous, on mouse C2C12 myoblast cells
T2 sequence (P37172 21-509): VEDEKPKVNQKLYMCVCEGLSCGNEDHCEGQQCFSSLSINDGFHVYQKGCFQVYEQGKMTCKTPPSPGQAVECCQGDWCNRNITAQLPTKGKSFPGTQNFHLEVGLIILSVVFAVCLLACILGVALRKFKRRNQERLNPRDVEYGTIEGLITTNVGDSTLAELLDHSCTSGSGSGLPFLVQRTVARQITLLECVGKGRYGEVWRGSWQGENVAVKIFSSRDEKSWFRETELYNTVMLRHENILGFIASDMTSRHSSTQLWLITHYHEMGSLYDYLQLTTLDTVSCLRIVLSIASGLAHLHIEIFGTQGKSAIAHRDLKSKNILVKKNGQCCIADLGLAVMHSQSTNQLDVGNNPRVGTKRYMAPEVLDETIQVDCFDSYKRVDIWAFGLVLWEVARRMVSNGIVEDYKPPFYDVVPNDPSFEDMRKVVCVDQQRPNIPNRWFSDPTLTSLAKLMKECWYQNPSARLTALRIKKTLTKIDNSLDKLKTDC
As to the kind of experiment: flow cytometry on cells; JAB0505 on parental (wild-type ACVR1-expressing) and ACVR1-KO C2C12 cells. The settings on record: one partner purified.

For assay [3], the target named is T3, ALK3 on C2C12 cells (Mus musculus (C2C12, endogenous), UniProt P36895).
T3 construct: ALK3 (BMPR1A), mouse, endogenous on the surface of C2C12 cells; also called Bmpr1a; source: endogenous, on mouse C2C12 myoblast cells (ACVR1-KO clone)
T3 sequence (P36895 24-532): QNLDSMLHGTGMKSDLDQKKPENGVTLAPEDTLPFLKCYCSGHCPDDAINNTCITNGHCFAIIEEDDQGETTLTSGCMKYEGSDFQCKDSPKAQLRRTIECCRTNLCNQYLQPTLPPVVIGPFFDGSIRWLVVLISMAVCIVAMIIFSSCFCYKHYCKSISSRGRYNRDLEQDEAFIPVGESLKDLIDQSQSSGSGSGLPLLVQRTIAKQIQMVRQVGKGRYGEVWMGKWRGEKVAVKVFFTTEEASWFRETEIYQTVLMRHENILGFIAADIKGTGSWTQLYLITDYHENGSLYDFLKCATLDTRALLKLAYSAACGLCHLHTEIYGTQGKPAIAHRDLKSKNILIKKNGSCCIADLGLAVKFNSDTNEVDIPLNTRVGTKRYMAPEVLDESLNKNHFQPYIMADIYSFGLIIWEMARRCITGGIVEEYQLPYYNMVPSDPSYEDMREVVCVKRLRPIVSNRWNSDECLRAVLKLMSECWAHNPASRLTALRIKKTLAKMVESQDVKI
Described as above. The settings on record: one partner purified.

One may read the Kd as a measure of binding affinity in units of concentration. Low readings indicate higher affinity, high ones lower affinity.

T1 sequence (Q04771 21-509): as the sequence (P37172 21-509) above, with V1M, Q10P, I121L, E162D, S310P counted along it

B1: anti-ACVR1 monoclonal antibody JAB0505 (antibody, V domains shown)
VH: EVQLQQSGAELVRPGASVRLSCTASGFNIKDSLMHWVKQRPEQGLEWIGWIDPEDGETRYAPNFQDKATITAVTSSNTAYLQLSSLTSEDSAIYYCARYTSRYYTMDYWGQGTSVTVSS
VL: DIQMTQSPASQSASLGESVTFTCLASQTIGTWLAWYQQKPGKSPQLLIYAATSLADGVPSRFSGSGSGTKFSFKISSLQAEDFASYYCQQLYWTPWTFGGGTKLEIK
notes: also called anti-ACVR1 mAb; mAb JAB0505; source: HEK293 cells, purified by protein A chromatography; copies: 2 + 2
B1 showed a Kd in assay [1] of approximately 25 nM. Also, the binding result in assay [2] is on record as “binds”; in assay [3], “no binding”.

For the origin of these results see paper PMC9197527, “An anti-ACVR1 antibody exacerbates heterotopic ossification by fibro-adipogenic progenitors in fibrodysplasia ossificans progressiva mice” (The Journal of Clinical Investigation, 2022).
